{"source": "paper PMC8240970", "about": "“Orally delivered polycurcumin responsive to bacterial reduction for targeted therapy of inflammatory bowel disease” (Drug Delivery, 2017)", "key": {"Caco-2 cells [1]": {"test_system": "Caco-2 cells", "assay": "LDH release assay", "settings": "25 μg/mL Cur, within 2 h, versus control", "procedure": "A lactate dehydrogenase (LDH) assay kit (Beyotime, Haimen, China) was used to determine the ability of PCur to destroy cell membranes. Briefly, Caco-2 cells seeded in a 96-well plate were incubated with Cur solution and PCur at 25 μg/mL concentration of Cur for 2 h, and serum-free medium was used as a control. After 1 h of incubation, 20 μL LDH release medium was added, followed by 1 h of co-incubation. One hundred and twenty microliter supernatant was transferred to a new plate at a determined time interval, followed by the addition of 60 μL LDH test medium and incubated for 30 min with gentle shaking. Finally, the absorption was measured at 490 nm on a microplate reader (Bio-Rad 500, Hercules, CA)."}, "Caco-2 cells [2]": {"test_system": "Caco-2 cells", "assay": "In vitro cytotoxicity by MTT assay", "settings": "1 to 100 μg/mL Cur, 2 h incubation", "procedure": "In vitro cytotoxicity of PCur and Cur solution was assessed in Caco-2 cells by MTT assay. Caco-2 cells were seeded at a density of 1 × 10^5 cells/mL in 100 μL DMEM culture medium in a 96-well plate at 37 °C and 5% CO2. After 24 h of incubation, Caco-2 cells were exposed to Cur and PCur solution with different Cur concentrations for 2 h. Meanwhile, serum-free medium incubation without drug was utilized as a control. MTT solution (20 μL, 5 mg/mL in PBS) was then added to each well, and the cells were further incubated for 4 h. The supernatant was removed and 100 μL of DMSO was introduced to each well to dissolve formazan crystals. Optical density (OD) was measured with a microplate reader (Thermo Scientific, Waltham, MA) at 570 nm. The experiments were repeated at least four times. Cell viability (%) was calculated as the ratio of OD in test samples to OD in control samples."}, "DSS-induced IBD": {"test_system": "DSS-induced IBD", "assay": "Pharmacodynamics in a murine DSS-induced IBD model (body weight, DAI, colon length, histology)", "format": "in vivo, female C57BL/6 mice", "settings": "for disease activity index (DAI) / recovery of shortened colon length / weight loss: 3% DSS for seven days, daily gavage, Cur 50 mg/kg; for weight loss: versus DSS or Cur suspension", "experimental": "(§1) Animal experiments were performed in female C57BL/6 mice (eight weeks, 18–20 g). Colitis was induced by feeding mice with a 3% (wt./vol) DSS solution as drinking water for seven days. The daily evaluation of mice was based on changes in body weight and development of the clinical symptoms of colitis. Disease activity index (DAI) was calculated according to the parameter previously reported (Li et al., [2015]). […] The dosage of Cur was set at 50 mg/kg. Mice were sacrificed on day 7, and histological assessment of colonic inflammation was carried out by hematoxylin and eosin (H&E) staining of 5 μm colonic tissue sections, observed by microscopy (×20 magnification). The samples were scored for inflammatory infiltration (0–3), epithelial abnormality (0–3) and crypt damage (0–3) and then the values of the three variables were summed as an indicator of inflamed degree (Magro et al., [2013])."}, "IL-6": {"test_system": "IL-6", "assay": "IL-6 level in colonic tissue by ELISA, DSS-induced IBD mice", "format": "in vivo, female C57BL/6 mice", "settings": "oral, Cur 50 mg/kg", "experimental": "as §1, with “[2013]). The levels of IL-6 and TNF-α in homogenized colonic tissue were measured by quantitative enzyme-linked immunosorbent assay (ELISA) kits according to manufacturer’s instructions (R&D Systems Inc., Minneapolis, MN). The final values of IL-6 and TNF-α were expressed as pg/mg or ng/mg protein (Qiao et al., [2014]).” for “[2013]).”"}, "TNF-α": {"test_system": "TNF-α", "assay": "TNF-α level in colonic tissue by ELISA, DSS-induced IBD mice", "format": "in vivo, female C57BL/6 mice", "settings": "oral, Cur 50 mg/kg", "experimental": "as §1, with “[2013]). The levels of IL-6 and TNF-α in homogenized colonic tissue were measured by quantitative enzyme-linked immunosorbent assay (ELISA) kits according to manufacturer’s instructions (R&D Systems Inc., Minneapolis, MN). The final values of IL-6 and TNF-α were expressed as pg/mg or ng/mg protein (Qiao et al., [2014]).” for “[2013]).”"}, "[3]": {"assay": "Particle size and zeta potential by dynamic light scattering", "format": "physicochemical", "settings": "in water, 25 °C"}, "[4]": {"assay": "Drug-loading content (Cur content in PCur)", "format": "physicochemical"}, "[5]": {"assay": "In vitro release of Cur from PCur in pH 7.4 PBS with or without GSH", "format": "physicochemical"}, "[6]": {"assay": "In vitro release of PCur under different pH conditions", "format": "physicochemical", "experimental": "Effect of pH values on drug release was also evaluated in the following buffers: hydrochloric acid/potassium chloride (pH 1.2), acetic acid/sodium acetate (pH 6.5) and PBS (pH 7.4). Buffer selection was based on the normal variations of the pH in the GIT from the stomach (pH 1.5) and the proximal small intestine (pH 6.0–6.8) to the ileocecal region (pH 7.3) (Hua et al., [2015]). One milliliter of sample (containing 1.2 mg of Cur) was placed in a dialysis bag, immersed into each media containing 0.1% (w/v) Tween 80 for drug release."}, "[7]": {"assay": "In vitro stability testing of PCur (size by DLS, morphology by TEM)", "format": "physicochemical", "settings": "37 °C", "excerpt": "A small portion of solution was collected at predetermined time points to measure the size distribution of PCur conjugate by DLS."}, "Caco-2 cell monolayer": {"test_system": "Caco-2 cell monolayer", "assay": "Transcellular study, apparent permeability coefficient", "format": "in vitro ADME", "experimental": "A 400 μL of culture medium was added to the apical (AP) side, and 600 μL was added to the basolateral (BL) side. The medium in both the AP and BL sides was changed every two days for the first week and every day thereafter. After 21 days of incubation, the integrity of the cell monolayers was evaluated by measuring transepithelial electrical resistance (TEER) values using a Millicell® electrical resistance system (Millipore, Billerica, MA). When the TEER value of inserts exceeded […], indicating cell monolayers were integrated and tight junctions were intact, they were selected for further transport studies. For transcellular research, the culture medium in the AP and BL side was removed and changed by HBSS. […] Six hundred microliter of fresh HBSS was added to the BL side. […] One hundred microliter of sample was mixed with 50 μL chloramphenicol (IS) and 50 μL acetonitrile, vortexed and centrifuged. The concentration of Cur in supernatant was determined by UPLC–MS/MS. At the end of the experiment, TEER values were assayed to estimate the integrity of the cell monolayers. The apparent permeability coefficient (Papp) for Cur was calculated according to the following equation: Papp=(dQ/dt)/(A×C0) where the dQ/dt was the drug permeation rate, A was the surface area of polycarbonate membrane and C0 was the initial concentration of Cur in AP side."}, "[8]": {"assay": "Pharmacokinetic study after oral administration", "design": "species or system Sprague–Dawley (SD) rats", "settings": "rat, in vivo, 50 mg/kg", "experimental": "Pharmacokinetics of PCur and Cur suspension were tested in SD rats, which were randomly divided into two study groups with six in each group. […] Three hundred microliter of blood samples were collected at 5, 10, 15, 30 and 45 min, 1, 2, 4, 8, 12 and 24 h post oral gavage and centrifuged at 12 000 rpm for 10 min. The supernatant plasma was collected and stored at −20 °C for UPLC–MS/MS analysis. The concentration of Cur was determined by a Waters ACQUITY UPLC system using a Xevo Triple Quadrupole MS equipped with an electrospray ionization (ESI) interface (Waters Co., Milford, MA). One hundred microliter plasma was mixed with 50 μL chloramphenicol (IS) and 50 μL acetonitrile, followed by vortexing for 3 min, and centrifuged at 12 000 rpm for 10 min. […] An aliquot of 5 μL was injected into the UPLC–MS/MS for analysis. Pharmacokinetic parameters were calculated using DAS 2.1 software (BioGuider Co., Shanghai, China)."}, "MPO activity": {"test_system": "MPO activity", "assay": "Myeloperoxidase (MPO) activity in colon of DSS-induced IBD mice", "format": "in vivo, female C57BL/6 mice", "settings": "oral, Cur 50 mg/kg", "experimental": "as §1, with “[2013]). Neutrophil infiltration into the colon can be quantified by measuring MPO activity. […] The homogenate was then sonicated for 10 s, freeze-thawed three times, and centrifuged at 12 000 rpm for 15 min. The supernatant was then added to 1 mg/mL o-dianisidine hydrochloride and 0.0005% hydrogen peroxide, and the change in absorbance at 460 nm was measured.” for “[2013]).”"}, "MDA content": {"test_system": "MDA content", "assay": "Malondialdehyde (MDA) content of colon of DSS-induced IBD mice", "format": "in vivo, female C57BL/6 mice", "settings": "oral, Cur 50 mg/kg", "experimental": "as §1, with “[2013]). Lipid peroxidation was evaluated by measuring the MDA content of the colon according to standard procedure protocol described in MDA Assay Kit (Beyotime, Haimen, China). In short, the colorimetric determination of MDA is based on the reaction of the reactive aldehyde with thiobarbituric acid at low pH (2–3) and temperature of 95 °C for 45 min. The pinkish resultant was extracted by n-butanol, and the absorbance was determined at 535 and 520 nm spectrophotometrically. […]” for “[2013]).”"}}, "note": "Marks after values point to notes of the source that are not given here.", "data": [{"molecule": "COc1cc(/C=C/C(=O)CC(=O)/C=C/c2ccc(O)c(OC)c2)ccc1O", "note": "[Cur solution, Curcumin]", "values": [{"measurement": "LDH leakage", "setting": "Caco-2 cells [1]", "result": "no significant LDH leakage"}, {"measurement": "cellular viability", "setting": "Caco-2 cells [2]", "result": "neither Cur solution nor PCur induced any significant changes"}]}, {"molecule": "O=C(O)c1cc(/N=N/c2ccc(S(=O)(=O)Nc3ccccn3)cc2)ccc1O", "note": "[SSZ, sulfasalazine, reference compound]", "values": [{"measurement": "disease activity index (DAI)", "setting": "DSS-induced IBD", "result": "successfully mitigated"}, {"measurement": "recovery of shortened colon length", "setting": "DSS-induced IBD", "result": "strongest efficacies"}, {"measurement": "weight loss", "setting": "DSS-induced IBD", "result": "less weight loss"}, {"measurement": "inhibition of the production of IL-6 in colonic tissue", "setting": "IL-6", "result": "strongest efficacy"}, {"measurement": "inhibition of the production of TNF-α in colonic tissue", "setting": "TNF-α", "result": "strongest efficacy"}]}, {"molecule": "PEG-ss-curcumin [PCur]", "values": [{"measurement": "average particle size", "setting": "[3]; DLS", "result": "134.4 ± 4.2", "unit": "nm"}, {"measurement": "Zeta potential", "setting": "[3]", "result": "−3.3 ± 1.2", "unit": "mV"}, {"measurement": "loading content", "setting": "[4]; calculated from integrated areas of 1H NMR spectra", "result": 12.5, "unit": "%"}, {"measurement": "loading content", "setting": "[4]; determined by fluorescence spectra", "result": "~14.6", "unit": "%"}, {"measurement": "Cur released", "setting": "[5]; pH 7.4 PBS with 10 mM GSH, in 2 h", "result": "~30", "unit": "%"}, {"measurement": "Cur released", "setting": "[5]; pH 7.4 PBS with 10 mM GSH, within 24 h", "result": 53, "unit": "%"}, {"measurement": "Cur released", "setting": "[5]; pH 7.4 buffer, without or with 10 μM GSH, first 2 h", "result": "less than 10%"}, {"measurement": "Cur released", "setting": "[5]; pH 7.4 buffer, without or with 10 μM GSH, within 24 h", "result": "approximately 15%"}, {"measurement": "Cur released", "setting": "[6]; buffer of pH 6.5, 24 h", "result": "less than 25%"}, {"measurement": "Cur released", "setting": "[6]; buffer of pH 6.5, first 2 h", "result": 10, "unit": "%"}, {"measurement": "pH-responsive release characteristic", "setting": "[6]; pH 7.4, 6.5 and 1.2", "result": "No significant pH-responsive release characteristic"}, {"measurement": "change of particle size distribution", "setting": "[7]; pH 1.2 and pH 7.4 PBS", "result": "little change"}, {"measurement": "change of mean diameter", "setting": "[7]; pH 7.4 PBS with 10 mM GSH", "result": "substantially increased"}, {"measurement": "apparent permeability coefficient (Papp) of Cur", "setting": "Caco-2 cell monolayer", "result": "2.38 ± 0.29 × 10^−6 cm/s"}, {"measurement": "AUC0–24 h", "setting": "[8]", "result": "202.05 ± 6.72^b h ng/mL"}, {"measurement": "AUC0–∞", "setting": "[8]", "result": "223.52 ± 5.25^b h ng/mL"}, {"measurement": "AUC(0 − 24) increase relative to Cur suspension", "setting": "[8]", "result": 8.63, "unit": "times"}, {"measurement": "Cmax", "setting": "[8]", "result": "23.35 ± 0.96^b ng/mL"}, {"measurement": "Cmax relative to Cur suspension", "setting": "[8]", "result": 3.41, "unit": "fold"}, {"measurement": "MRT0–∞", "setting": "[8]", "result": "9.60 ± 2.28^a h"}, {"measurement": "T1/2", "setting": "[8]", "result": "6.77 ± 1.40", "unit": "h"}, {"measurement": "Tmax", "setting": "[8]", "result": "0.50 ± 0.25^a h"}, {"measurement": "disease activity index (DAI)", "setting": "DSS-induced IBD", "result": "successfully mitigated"}, {"measurement": "recovery of shortened colon length", "setting": "DSS-induced IBD", "result": "strongest efficacies"}, {"measurement": "weight loss", "setting": "DSS-induced IBD", "result": "less weight loss"}, {"measurement": "histological examination of colon (H&E)", "setting": "DSS-induced IBD; day 7, versus DSS mice receiving PBS or Cur suspension", "result": "intact epitheliums, well-defined crypt structures and relatively low levels of neutrophil invasion"}, {"measurement": "MPO activity in colonic tissue", "setting": "MPO activity", "result": "strongly decreased"}, {"measurement": "MDA content in colonic tissue", "setting": "MDA content", "result": "strongly decreased"}, {"measurement": "inhibition of the production of IL-6 in colonic tissue", "setting": "IL-6", "result": "strongest efficacy"}, {"measurement": "inhibition of the production of TNF-α in colonic tissue", "setting": "TNF-α", "result": "strongest efficacy"}]}]}
